Assay [1] addresses T1, human FcγRIa (human, UniProt P12314 16-292, limits assumed).
T1 construct: also called FcgRIa; CD64
Nature of the assay: SPR (Biacore); binding amount divided by that of control IL6R-BF648/IL6R-L, x100.
T1 sequence (P12314 16-292 limits assumed): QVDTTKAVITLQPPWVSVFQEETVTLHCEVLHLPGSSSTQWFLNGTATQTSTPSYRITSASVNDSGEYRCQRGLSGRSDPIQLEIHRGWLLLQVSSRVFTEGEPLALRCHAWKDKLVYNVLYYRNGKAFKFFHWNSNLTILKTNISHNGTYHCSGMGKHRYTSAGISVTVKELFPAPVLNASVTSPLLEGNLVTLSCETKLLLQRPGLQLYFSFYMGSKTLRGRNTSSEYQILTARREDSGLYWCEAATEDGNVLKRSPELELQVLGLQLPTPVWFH
Method: (§1) According to the following method, relative binding activities were calculated for the results of analyzing interactions with the respective FcγRs.

Assay [2] has as its target T2, human FcγRIIa type H (human, UniProt P12318 36-217).
T2 construct: also called FcgRIIaH; FcγRIIa(H)
T2 sequence: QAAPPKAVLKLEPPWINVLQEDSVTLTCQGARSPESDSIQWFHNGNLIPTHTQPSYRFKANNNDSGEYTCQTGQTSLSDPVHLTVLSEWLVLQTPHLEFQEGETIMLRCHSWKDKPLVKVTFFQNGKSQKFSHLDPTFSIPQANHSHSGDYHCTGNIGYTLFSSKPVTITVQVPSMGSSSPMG
Described as above.
Method: as §1

The target in assay [3] is T3, human FcγRIIb (human, UniProt P31994 43-217, limits assumed).
T3 construct: also called FcgRIIb; FcγIIB
T3 sequence: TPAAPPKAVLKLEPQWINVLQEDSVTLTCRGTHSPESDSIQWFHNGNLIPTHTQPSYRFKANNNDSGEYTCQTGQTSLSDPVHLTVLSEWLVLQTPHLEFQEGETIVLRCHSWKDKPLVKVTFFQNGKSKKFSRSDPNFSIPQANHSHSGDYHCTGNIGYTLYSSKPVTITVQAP
Described as above.
Method: as §1

The target in assay [4] is T4, human FcγRIa (human, UniProt P12314 16-292, limits assumed).
T4 construct: also called FcgRIa; CD64
Nature of the assay: SPR (Biacore), FcγR over captured antibody; binding amount / that of IL6R-BF648/IL6R-L x100. In general terms: Surface plasmon resonance follows binding to a sensor surface in real time, without labels.
T4 sequence (P12314 16-292 limits assumed): as the sequence (P12314 16-292 limits assumed) above
Method: as §1

In a further assay the target is T5, human FcγRIIa type R (human, UniProt P12318 36-217).
T5 construct: also called FcgRIIaR; FcγRIIa(R)
T5 chain: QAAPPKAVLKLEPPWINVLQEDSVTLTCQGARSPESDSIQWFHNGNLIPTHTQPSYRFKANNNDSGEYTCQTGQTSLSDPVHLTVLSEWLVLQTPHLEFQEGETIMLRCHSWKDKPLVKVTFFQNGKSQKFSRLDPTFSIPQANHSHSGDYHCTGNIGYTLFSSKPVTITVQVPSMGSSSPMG
The assay is described as above.

Assay [5] has as its target T6, human FcγRIIa type H (human, UniProt P12318 36-217).
T6 construct: also called FcgRIIaH; FcγRIIa(H)
T6 sequence: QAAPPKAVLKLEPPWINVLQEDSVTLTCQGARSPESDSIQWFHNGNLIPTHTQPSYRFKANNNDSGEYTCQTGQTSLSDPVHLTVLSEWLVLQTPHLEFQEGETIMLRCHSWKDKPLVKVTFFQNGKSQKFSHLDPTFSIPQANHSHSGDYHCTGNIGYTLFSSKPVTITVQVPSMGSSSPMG
The assay is described as above.
Method: as §1

Assay [6] addresses T7, human FcγRIIb (human, UniProt P31994 43-217).
T7 construct: also called FcgRIIb; FcγIIB
T7 sequence: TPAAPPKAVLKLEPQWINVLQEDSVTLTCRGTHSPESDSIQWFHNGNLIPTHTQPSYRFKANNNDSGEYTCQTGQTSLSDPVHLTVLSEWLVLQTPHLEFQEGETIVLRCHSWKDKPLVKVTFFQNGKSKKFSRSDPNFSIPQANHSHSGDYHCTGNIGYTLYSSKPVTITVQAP
Described as above.
Method: as §1

In a further assay the target is T8, human FcγRIIIa type V (human, UniProt P08637 17-208, limits assumed).
T8 construct: Allotype V158 was used; also called FcgRIIIaV; FcγRIIIa(V)
T8 sequence (P08637 other isoform, or with tags, fused parts or gaps limits assumed): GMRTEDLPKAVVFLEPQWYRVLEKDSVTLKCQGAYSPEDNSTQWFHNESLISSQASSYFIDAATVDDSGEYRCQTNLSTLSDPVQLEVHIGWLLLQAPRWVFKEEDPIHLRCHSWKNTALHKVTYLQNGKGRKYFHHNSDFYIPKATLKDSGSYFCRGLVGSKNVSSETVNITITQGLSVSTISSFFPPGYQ
Described as above.

Method for human FcγRIIIa type V: as §1
Method for human FcγRIIa type R: as §1

B1: IL6R-BP202/IL6R-L (antibody, human IgG1)
heavy: QVQLQESGPGLVKPSETLSLTCAVSGHSISHDHAWSWVRQPPGEGLEWIGFISYSGITNYNPSLQGRVTISRDNSKNTLYLQMNSLRAEDTAVYYCARSLARTTAMDYWGEGTLVTVSSASTKGPSVFPLAPSSKSTSGGTAALGCLVKDYFPEPVTVSWNSGALTSGVHTFPAVLQSSGLYSLSSVVTVPSSSLGTQTYICNVNHKPSNTKVDKKVEPKSCDKTHTCPPCPAPELLGDDSVFLFPPKPKDTLMISRTPEVTCVVVDVSHEDGEVKFNWYVDGVEVHNAKTKPREEQYNSTYRVVSVLTVLHQDWLNGKEYKCKVSNAALPRPIEKTISKAKGQPREPQVYTLPPSRDELTKNQVSLTCLVKGFYPSDIAVEWESNGQPENNYKTTPPVLDSDGSFFLYSKLTVDKSRWQQGNVFSCSVMHEALHNHYTQESLSLSP
light: DIQMTQSPSSLSASVGDRVTITCRASQDISSYLNWYQQKPGKAPKLLIYYTSRLHSGVPSRFSGSGSGTDFTFTISSLQPEDIATYYCQQGNTLPYTFGQGTKVEIK
notes: The common L chain is IL6R-L; copies: 2 + 2
B1: the relative binding activity with human FcγRIa [1] was 43 % of IL6R-BF648/IL6R-L; in the assay with human FcγRIIa type H [2], 285 % of IL6R-BF648/IL6R-L; in the assay with human FcγRIIb [3] it was 185 % of IL6R-BF648/IL6R-L.

B2: IL6R-BP201/IL6R-L (antibody, human IgG1)
heavy: QVQLQESGPGLVKPSETLSLTCAVSGHSISHDHAWSWVRQPPGEGLEWIGFISYSGITNYNPSLQGRVTISRDNSKNTLYLQMNSLRAEDTAVYYCARSLARTTAMDYWGEGTLVTVSSASTKGPSVFPLAPSSKSTSGGTAALGCLVKDYFPEPVTVSWNSGALTSGVHTFPAVLQSSGLYSLSSVVTVPSSSLGTQTYICNVNHKPSNTKVDKKVEPKSCDKTHTCPPCPAPDLLGDDSVFLFPPKPKDTLMISRTPEVTCVVVDVSHEDGEVKFNWYVDGVEVHNAKTKPREEQYNSTYRVVSVLTVLHQDWLNGKEYKCKVSNKALPRPIEKTISKAKGQPREPQVYTLPPSRDELTKNQVSLTCLVKGFYPSDIAVEWESNGQPENNYKTTPPVLDSDGSFFLYSKLTVDKSRWQQGNVFSCSVMHEALHNHYTQESLSLSP
light: DIQMTQSPSSLSASVGDRVTITCRASQDISSYLNWYQQKPGKAPKLLIYYTSRLHSGVPSRFSGSGSGTDFTFTISSLQPEDIATYYCQQGNTLPYTFGQGTKVEIK
notes: as for B1
For B2, the results for the relative binding activity with human FcγRIa [1], with human FcγRIIa type H [2] and with human FcγRIIb [3] were 57 % of IL6R-BF648/IL6R-L, 359 % of IL6R-BF648/IL6R-L and 186 % of IL6R-BF648/IL6R-L, respectively.

B3: IL6R-BP200/IL6R-L (antibody)
heavy: QVQLQESGPGLVKPSETLSLTCAVSGHSISHDHAWSWVRQPPGEGLEWIGFISYSGITNYNPSLQGRVTISRDNSKNTLYLQMNSLRAEDTAVYYCARSLARTTAMDYWGEGTLVTVSSASTKGPSVFPLAPSSKSTSGGTAALGCLVKDYFPEPVTVSWNSGALTSGVHTFPAVLQSSGLYSLSSVVTVPSSSLGTQTYICNVNHKPSNTKVDKKVEPKSCDKTHTCPPCPAPDYLGDDSVFLFPPKPKDTLMISRTPEVTCVVVDVSHEDGEVKFNWYVDGVEVHNAKTKPREEQYNSTYRVVSVLTVLHQDWLNGKEYKCKVSNDALPRPIEKTISKAKGQPREPQVYTLPPSRDELTKNQVSLTCLVKGFYPSDIAVEWESNGQPENNYKTTPPVLDSDGSFFLYSKLTVDKSRWQQGNVFSCSVMHEALHNHYTQESLSLSP
light: DIQMTQSPSSLSASVGDRVTITCRASQDISSYLNWYQQKPGKAPKLLIYYTSRLHSGVPSRFSGSGSGTDFTFTISSLQPEDIATYYCQQGNTLPYTFGQGTKVEIK
notes: copies: 2 + 2
B3: the relative binding activity with human FcγRIa [1] is 60 % of IL6R-BF648/IL6R-L; in the assay with human FcγRIIa type H [2], 517 % of IL6R-BF648/IL6R-L; with human FcγRIIb [3], 188 % of IL6R-BF648/IL6R-L.

B4: IL6R-G1d/IL6R-L (antibody, human IgG1)
heavy: not shown
light: DIQMTQSPSSLSASVGDRVTITCRASQDISSYLNWYQQKPGKAPKLLIYYTSRLHSGVPSRFSGSGSGTDFTFTISSLQPEDIATYYCQQGNTLPYTFGQGTKVEIK
notes: also called IgG1
On to B4, for which the relative binding activity with human FcγRIa [4] was 140 % of IL6R-BF648/IL6R-L; with human FcγRIIa type R, 650 % of IL6R-BF648/IL6R-L; with human FcγRIIa type H [5], 1670 % of IL6R-BF648/IL6R-L; with human FcγRIIb [6], 62 % of IL6R-BF648/IL6R-L; in the assay with human FcγRIIIa type V it was 3350 % of IL6R-BF648/IL6R-L.

The values above are taken from US20140105889A1 (published 2014).
